Assay [1] deals with T1, human FcγRIIa (CD32) expressed on transfected COS-7 cells (human, UniProt P12318 34-317).
T1 sequence (looked up): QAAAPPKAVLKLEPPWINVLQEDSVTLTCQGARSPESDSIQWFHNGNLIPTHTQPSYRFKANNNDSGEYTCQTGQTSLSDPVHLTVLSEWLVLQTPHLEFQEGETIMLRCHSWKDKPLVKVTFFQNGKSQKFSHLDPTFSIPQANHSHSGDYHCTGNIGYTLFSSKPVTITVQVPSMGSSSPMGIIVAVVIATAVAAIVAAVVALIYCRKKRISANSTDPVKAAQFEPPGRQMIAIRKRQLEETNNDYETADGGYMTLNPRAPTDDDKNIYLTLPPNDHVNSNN
Kind of assay: flow cytometry on cells.

The target of assay [2] is FcγRII (CD32) on K-562 cells (human (endogenous in K-562)) (UniProt P12318). Kind of assay: flow cytometry on cells.

B1: C-reactive protein (CRP), human (natural protein, UniProt P02741 19-224, looked up)
chain: QTDMSRKAFVFPKESDTSYVSLKAPLTKPLKAFTVCLHFYTELSSTRGYSIFSYATKRQDNEILIFWSKDIGYSFTVGGSEILFEVPEVTVAPVHICTSWESASGIVEFWVDGKPRVRKSLKKGYTVGAEASIILGQEQDSFGGNFEGSQSLVGDIGNVNMWDFVLSPDEINTIYLGGPFSPNVLNWRALKYEVQGEVFTKPQLWP
Consider B1, for which the Kd amounted to 66 nM in assay [1] and 97 nM in assay [2].

The record behind these values is publication PMC2195602 (The Journal of Experimental Medicine, 1999).
